Assay results published in patent publication US20090263836A1.

Molecular target: iBoNT/A (protease inactive version of BoNT/A) (Clostridium botulinum)
Experiment: SPR (BIAcore), […] ([…] to […])

Work on “SV2C529-566 (luminal part of SV2C) (peptide)” yielded a Kd of 5 µM.
“sFGFR3 (loop 2 and 3 of the extra cellular domain of FGFR3) (receptor)” showed a Kd of 0.01 µM.
